We go through 2 molecules from article PMC6720452, “Structural Basis for Recruitment of DAPK1 to the KLHL20 E3 Ligase” (Structure(London, England:1993), 2019).

Positions count from the first letter of the chain named.

The test system of one assay is full-length KLHL20. Description: Cycloheximide chase assay in HEK293T cells. Format: cell-based, human. Conditions: 100 μg/mL cycloheximide, 0-6h; for Half-life / degradation of DAPK1 on KLHL20 co-expression: with vs without full-length KLHL20, Western blot normalized to GAPDH. An excerpt: (§1) To confirm the identified “LPDLV” motif as a regulatory site for DAPK1 interaction and degradation, we performed immunoprecipitation and cycloheximide (CHX) chase experiments in HEK293T cells. […] We then performed a CHX chase assay to compare the degradation of DAPK1 variants in the presence or absence of full-length KLHL20.
Figure 6 Mutations in the DAPK1 “LPDLV” Motif Impair DAPK1 Binding and Degradation by KLHL20 (A) Full-length DAPK1 variants and KLHL20 Kelch domain were co-transfected into HEK293T cells as indicated. FLAG-KLHL20 Kelch domain was immunoprecipitated (IP) with anti-FLAG antibody. DAPK1 WT was robustly co-purified with KLHL20, whereas DAPK1 mutant was only recovered at the background level of the beads alone. (B) DAPK1 variants were transfected into HEK293T cells with or without full-length KLHL20 as indicated. At 24 h post transfection, cells were incubated with 100 μg/mL cycloheximide (CHX) and harvested at different time points as indicated. DAPK1 protein levels were detected by western blot and normalized to GAPDH. (C) Quantitation of (B).
For structural and biophysical studies, the Kelch domains of human KLHL20 (Uniprot Q9Y2M5 isoform 1, M303-E605) and KLHL3 (Uniprot Q9UH77 isoform 1, residues S298–L587) were cloned using ligation-independent cloning into the bacterial expression vector pNIC28-Bsa4 (GenBank accession number EF198106), which provides for an N-terminal hexahistidine tag and TEV cleavage site. For cellular assays, full length DAPK1 was cloned into pcDNA3.1(+) providing an N-terminal HA tag. The mutant DAPK1 (1336-‘LPDLV’ motif mutated to ‘LPAAV’) was created in the same vector by site directed mutagenesis. […]
HEK293T cells were cultured as described above until 60% confluency. […] Results were analyzed using Western blotting with corresponding antibodies. GAPDH level in each sample was also detected for control (anti-GAPDH antibody; Thermo Fisher, MA5-15738). Western blot band intensities were quantified using Image Studio Lite Ver 5.2 and normalized for the GADPH control.
For orientation: In western blotting, separated proteins are transferred to a membrane and probed.

In another assay the test system is FLAG-KLHL20 Kelch domain. Description: Co-immunoprecipitation of KLHL20 and DAPK1 in HEK293T cells. The assay is classed as cell-based, human. Conditions: FLAG-KLHL20 Kelch domain and HA-DAPK1 full-length co-transfected, 40 hours after transfection, anti-FLAG IP, Western blot.
Description: as §1
Figure 6 Mutations in the DAPK1 “LPDLV” Motif Impair DAPK1 Binding and Degradation by KLHL20 (A) Full-length DAPK1 variants and KLHL20 Kelch domain were co-transfected into HEK293T cells as indicated. FLAG-KLHL20 Kelch domain was immunoprecipitated (IP) with anti-FLAG antibody. DAPK1 WT was robustly co-purified with KLHL20, whereas DAPK1 mutant was only recovered at the background level of the beads alone. (B) DAPK1 variants were transfected into HEK293T cells with or without full-length KLHL20 as indicated. […] DAPK1 protein levels were detected by western blot and normalized to GAPDH. (C) Quantitation of (B). […]
HEK293T cells were cultured in high glucose Dulbecco’s Modified Eagle’s Medium (Sigma-Aldrich) with 5% Penicillin Streptomycin (ThermoFisher) and 10% Fetal Bovine Serum (Sigma-Aldrich) inside a 5% CO2 incubator at 37°C. […] Results were analyzed using Western blotting (Anti-Flag antibody, Sigma-Aldrich, F1804; Anti-HA antibody, Biolegend, 901501; Anti-Myc antibody, Cell signalling, 2040S).

B1: DAPK1 WT: full-length HA-DAPK1 wild-type (protein)
chain: MTVFRQENVDDYYDTGEELGSGQFAVVKKCREKSTGLQYAAKFIKKRRTKSSRRGVSREDIEREVSILKEIQHPNVITLHEVYENKTDVILILELVAGGELFDFLAEKESLTEEEATEFLKQILNGVYYLHSLQIAHFDLKPENIMLLDRNVPKPRIKIIDFGLAHKIDFGNEFKNIFGTPEFVAPEIVNYEPLGLEADMWSIGVITYILLSGASPFLGDTKQETLANVSAVNYEFEDEYFSNTSALAKDFIRRLLVKDPKKRMTIQDSLQHPWIKPKDTQQALSRKASAVNMEKFKKFAARKKWKQSVRLISLCQRLSRSFLSRSNMSVARSDDTLDEEDSFVMKAIIHAINDDNVPGLQHLLGSLSNYDVNQPNKHGTPPLLIAAGCGNIQILQLLIKRGSRIDVQDKGGSNAVYWAARHGHVDTLKFLSENKCPLDVKDKSGEMALHVAARYGHADVAQLLCSFGSNPNIQDKEEETPLHCAAWHGYYSVAKALCEAGCNVNIKNREGETPLLTASARGYHDIVECLAEHGADLNACDKDGHIALHLAVRRCQMEVIKTLLSQGCFVDYQDRHGNTPLHVACKDGNMPIVVALCEANCNLDISNKYGRTPLHLAANNGILDVVRYLCLMGASVEALTTDGKTAEDLARSEQHEHVAGLLARLRKDTHRGLFIQQLRPTQNLQPRIKLKLFGHSGSGKTTLVESLKCGLLRSFFRRRRPRLSSTNSSRFPPSPLASKPTVSVSINNLYPGCENVSVRSRSMMFEPGLTKGMLEVFVAPTHHPHCSADDQSTKAIDIQNAYLNGVGDFSVWEFSGNPVYFCCYDYFAANDPTSIHVVVFSLEEPYEIQLNQVIFWLSFLKSLVPVEEPIAFGGKLKNPLQVVLVATHADIMNVPRPAGGEFGYDKDTSLLKEIRNRFGNDLHISNKLFVLDAGASGSKDMKVLRNHLQEIRSQIVSVCPPMTHLCEKIISTLPSWRKLNGPNQLMSLQQFVYDVQDQLNPLASEEDLRRIAQQLHSTGEINIMQSETVQDVLLLDPRWLCTNVLGKLLSVETPRALHHYRGRYTVEDIQRLVPDSDVEELLQILDAMDICARDLSSGTMVDVPALIKTDNLHRSWADEEDEVMVYGGVRIVPVEHLTPFPCGIFHKVQVNLCRWIHQQSTEGDADIRLWVNGCKLANRGAELLVLLVNHGQGIEVQVRGLETEKIKCCLLLDSVCSTIENVMATTLPGLLTVKHYLSPQQLREHHEPVMIYQPRDFFRAQTLKETSLTNTMGGYKESFSSIMCFGCHDVYSQASLGMDIHASDLNLLTRRKLSRLLDPPDPLGKDWCLLAMNLGLPDLVAKYNTSNGAPKDFLPSPLHALLREWTTYPESTVGTLMSKLRELGRRDAADFLLKASSVFKINLDGNGQEAYASSCNSGTSYNSISSVVSR
modifications: left off: HA, N-terminal, kept
notes: full-length HA-DAPK1 wild-type
Consider B1, for which, in the assay with full-length KLHL20, the “Half-life / degradation of DAPK1 on KLHL20 co-expression” value is recorded as “striking reduction in the half-life”. The “Recovery of DAPK1 in KLHL20 immunoprecipitation” value in the assay on FLAG-KLHL20 Kelch domain is reported as “robustly bound to KLHL20”.

B2: DAPK1 mutant: full-length DAPK1 mutant in which the critical 1,336-“LPDLV” motif was mutated to “LPAAV” (protein)
chain: B1 chain with D1338A, L1339A
modifications: left off: HA, N-terminal, kept
On to B2, for which the “Half-life of DAPK1 mutant compared with DAPK1 WT” value in the assay with full-length KLHL20 (with or without full-length KLHL20, Western blot normalized to GAPDH) is listed as “exceeded that of DAPK1 WT under any of the conditions above”. Besides, the “Half-life / degradation of DAPK1 on KLHL20 co-expression” value with full-length KLHL20 was “strikingly resistant to KLHL20 co-expression”. Besides, the “Recovery of DAPK1 in KLHL20 immunoprecipitation” value in the assay on FLAG-KLHL20 Kelch domain is listed as “only recovered at a low background level”.
